{
  "source": "patent US20230070339A1",
  "about": "(UNIVERSITY OF SOUTHAMPTON, published 2023)",
  "binders": {"B1": {"name": "LILRB3 mAb clone A16 (antibody, human IgG1, V domains shown)", "VH": "EVQLLESGGGLVQPGGSLRLSCAASGFTFSSYWMSWVRQAPGKGLEWVSRINTHGTNIDYADSVKGRFTISRDNSKNTLYLQMNSLRAEDTAVYYCVGVAGTGWFDPWGQGTLVTVSS", "VL": "QSVLTQPPSASGTPGQRVTISCTGSSSNIGAGYDVHWYQQLPGTAPKLLIYGNNNRPSGVPDRFSGSKSGTSASLAISGLRSEDEADYYCQSYDTSLSGSVFGGGTKLTVLG", "notes": "Fully human IgG1, full-length IgG; only variable domains tied to the clone; APC-labelled for staining of primary cells; deglycosylated in the T cell assay"}},
  "target": "T1, LILRB3-hFc recombinant protein (human, UniProt O75022 24-443)",
  "T1 construct": "extracellular domain; also called LILRB-Fc; the extracellular LILRB3 domain with a human Fc tag; not shown: human Fc tag",
  "T1 sequence (O75022 24-443)": "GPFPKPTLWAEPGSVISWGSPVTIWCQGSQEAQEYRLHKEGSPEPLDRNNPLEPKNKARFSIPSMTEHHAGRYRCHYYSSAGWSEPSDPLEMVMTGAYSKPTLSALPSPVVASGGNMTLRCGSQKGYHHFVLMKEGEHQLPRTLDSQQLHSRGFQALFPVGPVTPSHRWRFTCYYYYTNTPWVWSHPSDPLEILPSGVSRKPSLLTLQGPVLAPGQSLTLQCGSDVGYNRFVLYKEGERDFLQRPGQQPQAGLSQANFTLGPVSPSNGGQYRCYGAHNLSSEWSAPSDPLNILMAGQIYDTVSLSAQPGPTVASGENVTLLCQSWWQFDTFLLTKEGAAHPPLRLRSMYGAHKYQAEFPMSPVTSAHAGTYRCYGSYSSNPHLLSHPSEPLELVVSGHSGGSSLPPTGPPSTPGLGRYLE",
  "test": "SPR (Biacore T100), LILRB3-hFc amine-coupled on CM5 chip, mAb as analyte, 1:1 model",
  "description": "SPR was performed with the Biacore T100 (GE Healthcare, UK) as per the manufacturer's instructions. LILRB3-hFc recombinant protein (the extracellular LILRB3 domain with a human Fc tag) was used as the ligand and immobilized by amine coupling onto a series S sensor chip (CM5). Various LILRB3 mAb were used as “analytes” and flowed across the chip, and SPR measured.",
  "data": [
    {"binder": "B1", "values": [
      {"measurement": "Kd", "value": 0.816, "unit": "nM"}
    ]}
  ]
}
